Literature values, collected in publication PMC9010944.

Molecular target: PDGF-BB (Homo sapiens) (UniProt P01127)
Sequence (P01127 82-190): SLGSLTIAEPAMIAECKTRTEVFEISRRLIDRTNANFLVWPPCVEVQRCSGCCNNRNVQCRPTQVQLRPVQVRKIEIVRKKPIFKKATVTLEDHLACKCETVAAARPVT

Sequence of Perlecan domain III-2 (P98160 924-1324): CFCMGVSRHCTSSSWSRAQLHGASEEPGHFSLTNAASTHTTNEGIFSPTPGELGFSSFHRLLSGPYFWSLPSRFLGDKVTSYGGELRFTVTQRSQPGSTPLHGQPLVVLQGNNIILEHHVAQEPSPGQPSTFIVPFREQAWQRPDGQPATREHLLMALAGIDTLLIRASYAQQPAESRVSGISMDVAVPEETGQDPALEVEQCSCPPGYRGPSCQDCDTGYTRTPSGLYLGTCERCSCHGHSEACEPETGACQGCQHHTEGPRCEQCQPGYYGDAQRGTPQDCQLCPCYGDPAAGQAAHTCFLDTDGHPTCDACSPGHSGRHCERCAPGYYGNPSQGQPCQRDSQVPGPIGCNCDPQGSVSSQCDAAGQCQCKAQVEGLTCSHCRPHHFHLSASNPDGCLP

For “Perlecan domain III-2 (from UniProt P98160)”, the Kd is given as 8 nM.
